# Test results reported in the supplement of paper PMC10567573.
# B1: PPP2R2B (parent)
# chain: RNTKRDVTLEASRENSKPRAILKP
# Variants of: B1
# Test: protein stability index of a GFP-peptide fusion (GPS, HEK-293T) (PSI 1-6); higher = more stable
# Conditions: c terminus: a fixed tail appended
# 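Note: lentivirally expressed fusions sorted by FACS into six bins by GFP to DsRed ratio, PSI derived from sequencing read proportions per bin multiplied by bin number.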
row,Variant,protein stability index
1,R13M,4.64
2,R13A,4.92
3,R13I,4.53
4,R13V,4.67
5,R13W,3.56
6,R13L,4.44
7,R13F,3.98
8,R13Q,4.75
9,R13S,4.91
10,R13D,5.09
11,R13E,5.14
12,R13Y,4.37
13,R13G,5.06
14,R13N,4.83
15,R13P,4.46
16,R13C,4.16
17,R13T,4.07
18,R13H,5.06
19,R13K,4.69
20,I21M,4.67
21,I21R,5.35
22,I21N,4.68
23,I21Y,4.5
24,I21E,5.34

row,Variant,protein stability index
1,I21Q,4.8
2,I21C,4.85
3,I21K,4.83
4,I21G,4.99
5,I21L,4.68
6,I21V,4.6
7,I21A,4.8
8,I21F,4.3
9,I21P,5.15
10,I21T,4.5
11,I21H,4.52
12,I21W,4.7
13,I21S,4.78
14,I21D,5.3
15,E14P,4.3
16,E14Y,3.67
17,E14C,3.9
18,E14Q,4.97
19,E14V,3.79
20,E14L,4.04
21,E14T,4.58
22,E14W,3.87
23,E14N,4.72
24,E14D,4.4

row,Variant,protein stability index
1,E14I,3.72
2,E14M,3.88
3,E14R,4.14
4,E14S,4.45
5,E14F,3.88
6,E14H,4.49
7,E14G,4.4
8,E14K,4.12
9,E14A,4.66
10,K23F,3.48
11,K23V,4.31
12,K23S,4.56
13,K23Q,4.89
14,K23A,4.5
15,K23N,4.18
16,K23L,3.91
17,K23C,4.25
18,K23R,4.04
19,K23Y,4.38
20,K23H,4.57
21,K23W,4.33
22,K23P,4.5
23,K23T,4.67
24,K23I,4.04

row,Variant,protein stability index
1,K23E,4.5
2,K23D,4.79
3,K23M,3.94
4,K23G,4.48
5,S16V,4.24
6,S16H,4.57
7,S16F,4.38
8,S16Q,4.61
9,S16R,4.24
10,S16N,4.48
11,S16T,4.2
12,S16K,4.23
13,S16C,4.23
14,S16Y,4.17
15,S16P,4.96
16,S16D,4.58
17,S16W,3.37
18,S16I,4.19
19,S16E,4.75
20,S16A,4.51
21,S16L,4.16
22,S16G,4.42
23,S16M,4.53
24,E10Y,4

row,Variant,protein stability index
1,E10V,4.35
2,E10T,3.7
3,E10W,2.77
4,K17G,4.89
5,K17P,5.27
6,K17T,4.71
7,K17R,4.38
8,K17I,4.33
9,K17F,4.37
10,K17Y,4.14
11,K17V,4.66
12,K17S,4.04
13,K17E,5.13
14,K17L,4.56
15,K17D,4.57
16,K17A,4.66
17,K17C,4.18
18,K17M,4.69
19,K17W,4.3
20,K17Q,4.81
21,K17N,4.5
22,K17H,4.47
23,P18C,4.25
24,P18A,4.52

row,Variant,protein stability index
1,P18K,4.73
2,P18N,4.55
3,P18Y,3.62
4,P18T,4.54
5,P18I,4.27
6,P18F,3.79
7,P18D,5.07
8,P18V,4.32
9,P18H,4.11
10,P18R,4.79
11,P18E,5
12,P18Q,4.76
13,P18G,4.86
14,P18L,4.27
15,P18W,3.87
16,P18S,4.72
17,P18M,4.58
18,S12G,5.13
19,S12A,4.12
20,S12C,3.95
21,S12Y,4.18
22,S12M,4.12
23,S12Q,4.42
24,S12V,4.33

row,Variant,protein stability index
1,S12W,3.79
2,S12H,4.73
3,S12K,4.34
4,S12F,3.58
5,S12P,4.45
6,S12I,4.07
7,S12L,3.96
8,S12R,4.41
9,S12E,4.95
10,S12N,4.43
11,S12D,4.8
12,S12T,4.79
13,P24V,4
14,P24R,4.13
15,P24C,4.44
16,P24K,4.26
17,P24W,3.55
18,P24E,4.74
19,P24D,3.69
20,P24G,4.65
21,P24N,4.82
22,P24S,4.49
23,P24A,4.74
